Assay [1] has as its target combination of receptor ALK4 and receptor ActRIIB. The experiment in a line: cell-based or functional assay.
In assay [2] the target is combination of receptor ALK7 and receptor ActRIIB. Description: cell-based or functional assay.

Turning to “Neuronal Survival and Growth Factor 3 (NSG3) (ligand)”, in assay [1], the luciferase activity of the Smad3-specific pCAGA-luc reporter in HepG2 cells co-expressing ALK4, ActRIIB and NsG-3 (basal without NsG-3 approx. 2) (arbitrary units) turned out to be 7. Further, in assay [2], the luciferase activity of the Smad3-specific pCAGA-luc reporter in HepG2 cells co-expressing ALK7, ActRIIB and NsG-3 (basal without NsG-3 approx. 9) (arbitrary units) stood at 33.

The values are drawn from patent US20040259779A1.
